From patent US20020123056A1

Target: PKB-sub peptide (GSK3 consensus peptide) …
Test: cell-based or functional assay

kinase activity, 32P incorporation; GST-SGK2 from Hi5 cells treated with Calyculin A: 92500 CCPM1
kinase activity, 32P incorporation; GST-SGK2 from Hi5 cells treated with Microcysteine: 217 CCPM1
kinase activity, 32P incorporation; GST-SGK2 from Hi5 cells treated with Okadaic Acid: 132000 CCPM1
kinase activity, 32P incorporation; GST-SGK2 from untreated Hi5 cells: 979 CCPM1
Substance: GST-SGK2 fusion protein (human SGK2 with N-terminal Glutathione S-transferase tag, expressed in Hi5 insect cells) (from UniProt Q9HBY8 1-367) (enzyme)
